Test results published in patent US20180057603A1.

Molecular target: erbB2 (p185erbB2/HER2/neu) on SK-BR-3 cells (human) (UniProt P04626)
Assay: cell-based or functional assay

foci less than 20 pixels in soft agar (SK-BR-3): 72%
Substance: anti-erbB2 mAb 4D5 (antibody)
